In patent US20200247886A1 (ZLIP, published 2020):

Experiments:
[1] = target: T1, human CD47 expressed on cells (CD47 expressing CHO cells, Jurkat, HL60, DLD1, Raji) (human, UniProt Q08722 19-292); test: flow cytometry on DLD1 cells, IgG, MFI
T1 construct: also called CHO-CD47; IAP

[2] = target: T1, human CD47 expressed on cells (CD47 …); test: flow cytometry on DLD1 cells, IgG, frequency
[3] = target: T1, human CD47 expressed on cells (CD47 …); test: IC50 as grade, SIRPα blocking on Raji cells; legend +++: <1 nM
[4] = target: T1, human CD47 expressed on cells (CD47 …); test: flow cytometry blocking assay on Raji cells, SIRPα is the blocked ligand, MFI
[5] = target: T1, human CD47 expressed on cells (CD47 …); test: flow cytometry SIRP-alpha blocking assay on Raji cells, MFI
[6] = target: T1, human CD47 expressed on cells (CD47 …); test: flow cytometry on human red blood cells, donor 2, MFI
[7] = target: T1, human CD47 expressed on cells (CD47 …); test: flow cytometry on human red blood cells, donor 1, MFI
[8] = target: T1, human CD47 expressed on cells (CD47 …); test: flow cytometry on human platelets, donor 2, MFI
[9] = target: T1, human CD47 expressed on cells (CD47 …); test: flow cytometry on human platelets, donor 1, MFI
[10] = target: T1, human CD47 expressed on cells (CD47 …); test: flow cytometry on human red blood cells, MFI
CD47 on monkey RBC = target: T2, CD47 on monkey RBC (Macaca fascicularis, UniProt A0A2K5X523); test: flow cytometry on cynomolgus monkey red blood cells expressing CD47, MFI
T2 construct: native, on red blood cells; also called cynomolgus monkey red blood cells expressing CD47

[11] = target: T1, human CD47 expressed on cells (CD47 …); test: flow cytometry on human platelets, MFI
[12] = target: T1, human CD47 expressed on cells (CD47 …); test: flow cytometry on CD47 expressing CHO cells, MFI (FL-4)
CHO/mCD47-GFP = target: T3, CHO/mCD47-GFP (mouse, UniProt Q61735); test: flow cytometry on CHO cells expressing mouse CD47-GFP, binding percentage
T3 construct: on the cell surface; also called mouse CD47 expressed on CHO cells; CHO cell expressing mouse CD47
T3 sequence (receptor, looked up): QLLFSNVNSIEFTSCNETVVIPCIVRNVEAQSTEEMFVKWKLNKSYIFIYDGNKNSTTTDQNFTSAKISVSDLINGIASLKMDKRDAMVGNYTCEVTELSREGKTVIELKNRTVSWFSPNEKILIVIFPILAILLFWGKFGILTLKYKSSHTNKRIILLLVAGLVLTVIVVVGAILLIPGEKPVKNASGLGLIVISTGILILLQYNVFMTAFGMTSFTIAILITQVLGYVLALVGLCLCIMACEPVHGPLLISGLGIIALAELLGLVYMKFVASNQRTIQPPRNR

B1: ABU16 (IgG) (antibody, V domains shown)
VH: RVQLQQSGAELVRPGTSVKVSCKASAYAFTNYLIEWVKKRPGQGLEWIGVINPGSGGTNYNEKFKGKATLTADKSSSTAYMQLSSLTSEDSAVYFCARGDGYGSLFAYWGQGTLVTVSA
VL: RHCFNQSPAIMSASPGEKVTMTCSASSSVSYMHWYQQKSGTSPKRWIYDTSNLASGVPVRFSGSGSGTSYSLTISRMEAEDAATYYCQQWSNYPFTFGSGTKLELK
[1]
  EC50 (read off the curve): ~4 nM
[2]
  EC50 (read off the curve): ~0.4 nM

B2: H-ABU 6 (antibody, V domains shown)
VH: QVQLVQSGAEVKKPGASVKVSCKASGYTFTDFYINWVRQAPGQRLEWMGWIYLGSGNTKYNEKFKGRVTITRDTSASTAYMELSSLRSEDTAVYYCARREERGFAYWGQGTLVTVSS
VL: DIVMTQSPDSLAVSLGERATINCKSSQSLLSSNQKNYLAWYQQKPGQPPKLLIYWASVRDSGVPDRFSGSGSGTDFTLTISSLQAEDVAVYYCQQFYSYPLTFGQGTKVEIK
[3]
  IC50: < 1 nM
[4]
  IC50 (read off the curve): ~0.4 nM

B3: H-ABU 4 (antibody, V domains shown)
VH: QVQLVQSGAEVKKPGASVKVSCKASGYTFTDIYINWVRQAPGQRLEWMGWIYLGSGNVKYNEKFKGRVTITRDTSASTAYMELSSLRSEDTAVYYCARREDRGFAYWGQGTLVTVSS
VL: DIVMTQSPDSLAVSLGERATINCKSSQSLLSSNQKYYLAWYQQKPGQPPKLLIYWASTRDSGVPDRFSGSGSGTDFTLTISSLQAEDVAVYYCQQFYSYPLTFGQGTKVEIK
[3]
  IC50: < 1 nM
[4]
  IC50 (read off the curve): ~0.3 nM

B4: H-ABU 39 (antibody, V domains shown)
VH: QVQLVQSGAEVKKPGASVKVSCKTSGYSFTNYWMQWVRQAPGQGLEWIGMIDPSDSESRLNQKFKDRATLTVDTSTSTAYMELSSLRSEDTAVYYCARRGSPMITSFAYWGQGTLVTVSS
VL: DVQITQSPSSLSASVGDRVTITCRASKNIGKYLAWFQQKPGKTNKLLIYSGSTLQSGIPSRFSGSGSGTDFTLTISSLQPEDFATYYCQQHNEYPYTFGGGTKVEIK
notes: Humanized antibody
[5]
  IC50 (read off the curve): ~0.3 nM

B5: H-ABU 37 (antibody, V domains shown)
VH: QVQLVQSGAEVKKPGASVKVSCKASGYTFTNYWMQWVRQAPGQGLEWMGMIDPSDSESRLNQKFKDRVTMTRDTSTSTVYMELSSLRSEDTAVYYCARRGSPMITSFAYWGQGTLVTVSS
VL: DVQITQSPSSLSASVGDRVTITCRASKNIGKYLAWFQQKPGKTNKLLIYSGSTLQSGIPSRFSGSGSGTDFTLTISSLQPEDFATYYCQQHNEYPYTFGGGTKVEIK
notes: Humanized antibody
[5]
  IC50 (read off the curve): ~0.3 nM

B6: H-ABU 38 (antibody, V domains shown)
VH: QVQLVQSGAEVKKPGASVKVSCKASGYTFTNYWMQWVRQAPGQGLEWIGMIDPSDSESRLNQKFKDRATLTVDTSTSTVYMELSSLRSEDTAVYYCARRGSPMITSFAYWGQGTLVTVSS
VL: DVQITQSPSSLSASVGDRVTITCRASKNIGKYLAWFQQKPGKTNKLLIYSGSTLQSGIPSRFSGSGSGTDFTLTISSLQPEDFATYYCQQHNEYPYTFGGGTKVEIK
notes: Humanized antibody
[5]
  IC50 (read off the curve): ~0.3 nM

B7: H-ABU 41 (antibody, V domains shown)
VL: DVQITQSPSSLSASVGDRVTITCRASKNIGKYLAWFQQKPGKTNKLLIYSGSTLQSGIPSRFSGSGSGTDFTLTISSLQPEDFATYYCQQHNEYPYTFGGGTKVEIK
VH: QVQLQQSGAEVKKPGASVKVSCKTSGYSFTNYWMQWVRQAPGQGLEWIGMIDPSDSESRLNQKFKDKATLTVDKSTSTAYMELSSLRSEDTAVYYCARRGSPMITSFAYWGQGTLVTVSS
notes: Humanized antibody
[6]
  EC50 (read off the curve): ~1 nM
[5]
  IC50 (read off the curve): ~0.3 nM
[7]
  EC50 (read off the curve): ~1 nM
[8]
  EC50 (read off the curve): ~0.6 nM
[9]
  EC50 (read off the curve): ~0.6 nM

B8: H-ABU 43 (antibody, V domains shown)
VH: QVQLVQSGAEVKKPGASVKVSCKTSGYSFTNYWMQWVRQAPGQGLEWMGMIDPSDSESRLNQKFKDRVTMTRDTSTSTAYMELSSLRSEDTAVYYCARRGSPMITSFAYWGQGTLVTVSS
VL: DVQITQSPSSLSASVGDRVTITCRASKNIGKYLAWFQQKPGKTNKLLIYSGSTLQSGIPSRFSGSGSGTDFTLTISSLQPEDFATYYCQQHNEYPYTFGGGTKVEIK
notes: Humanized antibody
[6]
  EC50 (read off the curve): ~1 nM
[5]
  IC50 (read off the curve): ~0.3 nM
[7]
  EC50 (read off the curve): ~1 nM
[8]
  EC50 (read off the curve): ~0.6 nM
[9]
  EC50 (read off the curve): ~0.6 nM

B9: Positive 3-IgG4-P (antibody)
heavy chain: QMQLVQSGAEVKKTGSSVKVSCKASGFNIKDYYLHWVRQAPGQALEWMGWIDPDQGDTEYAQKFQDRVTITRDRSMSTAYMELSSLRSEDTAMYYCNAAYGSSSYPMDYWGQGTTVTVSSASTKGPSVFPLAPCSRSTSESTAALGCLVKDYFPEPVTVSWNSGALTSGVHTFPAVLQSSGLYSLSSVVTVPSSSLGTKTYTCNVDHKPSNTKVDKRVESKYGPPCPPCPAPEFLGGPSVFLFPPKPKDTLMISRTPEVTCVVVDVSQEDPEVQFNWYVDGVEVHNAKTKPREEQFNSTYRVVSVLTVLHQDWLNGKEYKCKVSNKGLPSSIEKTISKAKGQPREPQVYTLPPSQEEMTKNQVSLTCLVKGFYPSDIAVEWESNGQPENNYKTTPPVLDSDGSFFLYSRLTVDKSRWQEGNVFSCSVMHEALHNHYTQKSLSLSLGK
light chain: QMTQSPSAMSASVGDRVTITCKASQDIHRYLSWFQQKPGKVPKHLIYRANRLVSGVPSRFSGSGSGTEFTLTISSLQPEDFATYYCLQYDEFPYTFGGGTKVEIKRTVAAPSVFIFPPSDEQLKSGTASVVCLLNNFYPREAKVQWKVDNALQSGNSQESVTEQDSKDSTYSLSSTLTLSKADYEKHKVYACEVTHQGLSSPVTKSFNRGEC
[10]
  EC50 (read off the curve): ~4 nM
CD47 on monkey RBC
  EC50 (read off the curve): ~0.2 µg/mL
[11]
  EC50 (read off the curve): ~2 nM

B10: Positive 3-IgG4-PE (antibody)
heavy chain: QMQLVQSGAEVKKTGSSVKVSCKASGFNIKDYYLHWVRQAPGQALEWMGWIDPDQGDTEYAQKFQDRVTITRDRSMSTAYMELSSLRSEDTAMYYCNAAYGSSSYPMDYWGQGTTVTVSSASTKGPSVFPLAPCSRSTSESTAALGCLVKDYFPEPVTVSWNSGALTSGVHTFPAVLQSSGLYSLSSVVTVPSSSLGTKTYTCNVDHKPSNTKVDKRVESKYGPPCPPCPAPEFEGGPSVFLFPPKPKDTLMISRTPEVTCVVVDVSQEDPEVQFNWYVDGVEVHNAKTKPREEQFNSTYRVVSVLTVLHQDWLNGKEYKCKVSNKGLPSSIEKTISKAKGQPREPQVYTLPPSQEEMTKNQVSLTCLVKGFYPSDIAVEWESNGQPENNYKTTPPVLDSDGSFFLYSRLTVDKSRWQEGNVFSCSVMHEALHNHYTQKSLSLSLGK
light chain: QMTQSPSAMSASVGDRVTITCKASQDIHRYLSWFQQKPGKVPKHLIYRANRLVSGVPSRFSGSGSGTEFTLTISSLQPEDFATYYCLQYDEFPYTFGGGTKVEIKRTVAAPSVFIFPPSDEQLKSGTASVVCLLNNFYPREAKVQWKVDNALQSGNSQESVTEQDSKDSTYSLSSTLTLSKADYEKHKVYACEVTHQGLSSPVTKSFNRGEC
[10]
  EC50 (read off the curve): ~4 nM
CD47 on monkey RBC
  EC50 (read off the curve): ~0.1 µg/mL
[11]
  EC50 (read off the curve): ~2 nM

B11: H-ABU44 (antibody, V domains shown)
VH: QVQLVQSGAEVKKPGASVKVSCKASGYSFTNYHIHWVRQAPGQRLEWIGWIYPGSGNTKYNEKFKGRATLTADTSASTAYMELSSLRSEDTAVYYCARYDYDLYLHSWGQGTLVTVSS
VL: DIQITQSPSSVSASVGDRVTITCHASQNINVWLSWYQQKPGKAPKLLIYKASNLHTGVPSRFSGSGSGTGFTLTISSLQPEDFATYYCQQGQSYPLTFGQGTKLEIK
[6]
  EC50 (read off the curve): ~0.2 nM
[7]
  EC50 (read off the curve): ~0.2 nM
[8]
  EC50 (read off the curve): ~0.1 nM
[9]
  EC50 (read off the curve): ~0.1 nM

B12: C-ABU4 (antibody, human IgG4 S228P, kappa, V domains shown)
VH: QVQLQQSGPQLVRPGASVKISCKTSGYSFTNYWMQWVKQRPGQGLEWIGMIDPSDSESRLNQKFKDKATLTVDKSSSTAYMQLSSPTFEDSAVYYCARRGSPMITSFAYWGQGTLVTVSA
VL: DVQITQSPSFLAASPGETITINCRASKNIGKYLAWFQEKPGKTNKLLIYSGSTLQSGIPSRFSGSGSGTDFTLTISSLEPEDFAIYYCQQHNEYPYTFGGGTKLEIKR
notes: Human chimeric IgG4 antibody
[12]
  EC50 (read off the curve): ~1 nM

B13: H-ABU10-IgG4-P (antibody)
light chain: DIVMTQSPDSLAVSLGERATINCKSSQSLVSSSQKNYLAWYQQKPGQPPKLLIYWASVRDSGVPDRFSGSGSGTDFTLTISSLQAEDVAVYYCQQYYSYPLTFGQGTKVEIK
heavy chain: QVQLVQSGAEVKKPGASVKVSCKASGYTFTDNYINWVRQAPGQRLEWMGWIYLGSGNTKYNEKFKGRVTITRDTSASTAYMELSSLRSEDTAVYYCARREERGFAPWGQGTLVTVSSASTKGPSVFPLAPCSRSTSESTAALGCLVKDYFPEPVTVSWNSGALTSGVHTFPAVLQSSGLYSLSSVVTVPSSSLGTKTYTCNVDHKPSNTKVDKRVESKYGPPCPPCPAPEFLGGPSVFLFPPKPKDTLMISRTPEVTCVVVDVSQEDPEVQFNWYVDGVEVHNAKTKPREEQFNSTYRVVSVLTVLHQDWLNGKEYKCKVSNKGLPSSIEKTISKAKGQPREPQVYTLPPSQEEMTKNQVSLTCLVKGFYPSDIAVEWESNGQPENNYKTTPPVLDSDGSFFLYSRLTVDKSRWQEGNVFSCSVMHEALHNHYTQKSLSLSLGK
[10]
  EC50 (read off the curve): ~4 nM
[11]
  EC50 (read off the curve): ~2 nM

B14: H-ABU10-IgG4-PE (antibody)
light chain: DIVMTQSPDSLAVSLGERATINCKSSQSLVSSSQKNYLAWYQQKPGQPPKLLIYWASVRDSGVPDRFSGSGSGTDFTLTISSLQAEDVAVYYCQQYYSYPLTFGQGTKVEIK
heavy chain: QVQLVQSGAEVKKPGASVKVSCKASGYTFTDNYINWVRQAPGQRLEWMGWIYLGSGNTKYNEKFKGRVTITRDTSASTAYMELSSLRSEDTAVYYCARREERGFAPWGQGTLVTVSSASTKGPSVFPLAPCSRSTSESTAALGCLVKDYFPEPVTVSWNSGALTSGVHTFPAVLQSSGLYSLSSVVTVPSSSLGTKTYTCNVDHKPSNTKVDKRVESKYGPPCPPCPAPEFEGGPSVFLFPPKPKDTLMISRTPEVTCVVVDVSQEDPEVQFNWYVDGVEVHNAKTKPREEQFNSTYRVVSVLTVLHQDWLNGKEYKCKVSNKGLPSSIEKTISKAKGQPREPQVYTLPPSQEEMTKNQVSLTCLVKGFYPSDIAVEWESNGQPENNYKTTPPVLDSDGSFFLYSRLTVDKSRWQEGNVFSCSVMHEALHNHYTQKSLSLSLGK
[10]
  EC50 (read off the curve): ~4 nM
[11]
  EC50 (read off the curve): ~2 nM

B15: ABU7 (antibody, V domains shown)
VH: EVQLQQSGPELVKPGASVKISCKASGYSFTGYYMNWVKQSPEKSLEWIGEINPSTGGTTYNQKFKAKATLTVDKSSSTAYMQLKSLTFEDSAVYYCAIYDGYEGFAYWGQGTLVTVSA
VL: DIKMTQSPSSMYASLGERVTITCKASQDIKSYLSWYQQKPWKSPKTLIYYATSLADGVPSRFSGSGSGQHYSLTISSLESDDTATYYCLQHGESPFTFGSGTKLEIK
notes: Murine hybridoma monoclonal antibody
CHO/mCD47-GFP
  binding result: no binding (tested: about 0.4 ug/ml)
